Target: SARS-CoV Urbani RBD (SARS-CoV Urbani, UniProt P59594)
Assay: ELISA

B1: S2X324 mAb (antibody, V domains shown)
VH: QITLKESGPTLVKPTQTLTLTCTFSGFSVTTSGVGVGWIRQPPGKALEYLALIYWDDDKRYSTSLKSRLTITKDTSKNQVVLTMTNMDPVDTATYYCARHTIPSIFDYWGQGILVTVSS
VL: QPVLTQPASVSGSPGQSITISCTATSSDVGNYNYVSWYQHHPGKAPKLMIYEVSNRPSGVSNRFSGSKSGNTASLTISGLQAEDEADYYCSSYTSSSLLFGGGTKLTVL
binding result: no binding

Source: publication PMC9176643 (bioRxiv, 2022)
